Results taken from patent US20180258165A1 (CELL MEDICA SWITZERLAND, published 2018).
Where a chain is given by its changes, count along the chain named.

B1: DLX2295 (scFv)
scFv: DIQMTQSPSTLSASVGDRVTITCRASQDISNYLSWYQQKPGKAPKLLIYYTSKLHSGVPSRFSGSGSGAEFTLTISSLQPEDFATYFCLQGKMLPWTFGQGTKLEIKRGGGGSGGGGSGGGGSGGGGSEVQLVESGGGSVQPGGSLRLSCAFSGFSLSTSGMGVGWIRQAPGKGLEWVSHIWWDGDESYNPSLKGRFTISKDTSRNTVYLQMNSLRAEDTASYFCARNRYDPPWFVDWGQGTTVTVSS
notes: also called anti-IL-1 beta scFv DLX2295
B2: DLX2296 (scFv)
scFv: B1 scFv with S139L, S222V, T243L
B3: DLX2260 (scFv)
scFv: EIVMTQSPSTLSASVGDRVIITCRASQDISNYLSWYQQKPGKAPKLLIYYTSKLHSGVPSRFSGSGSGAEFTLTISSLQPDDFATYYCLQGKMLPWTFGQGTKLTVLGGGGGSGGGGSGGGGSGGGGSEVQLVESGGGLVQPGGSLRLSCTASGFSLSTSGMGVGWVRQAPGKGLEWVGHIWWDGDESYNPSLKSRFTISRDTSKNTVYLQMNSLRAEDTAVYYCARNRYDPPWFVDWGQGTLVTVSS
B4: DLX2332 (scFv)
scFv: B3 scFv with D81E, Y87F, L139S, T151A, V222S, Y224F, L243T
notes: also called anti-IL-1 beta scFv DLX2332

Tests used:
cynomolgus IL-1 beta = biological target: T1, cynomolgus IL-1 beta (cynomolgus, UniProt P79182 117-268); test: ELISA, IL-1 beta coated at 2 mcg/ml, DLX2295 at 0.1, 0.3 and 1.0 mcg/ml, Protein L-HRP
T1 construct: Bought recombinant protein; also called cymonolgus IL-1 beta
T1 sequence (looked up): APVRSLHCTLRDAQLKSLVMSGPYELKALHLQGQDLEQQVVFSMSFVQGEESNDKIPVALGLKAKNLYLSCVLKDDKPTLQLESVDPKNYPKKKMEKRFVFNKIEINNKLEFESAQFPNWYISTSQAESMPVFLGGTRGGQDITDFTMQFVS
Protocol: (§1) Binding to the recombinantly expressed IL-1 beta proteins of the following species was investigated: cynomolgus (Sino Biological Inc., USA, cat. no. 90010-CNAE), rhesus macaque (R&D Systems, USA, cat. no. 1318-RL/CF) and mouse IL-1 beta (BioLegend, cat. no. 575102). […] Briefly, proteins were coated at a concentration of 2 mcg/ml over night at 4° C. on Maxisorp 96-well microplates in PBS pH 7.2. […] The ELISAs were developed with BM Blue POD substrate (Roche Applied Science) and the absorbance was measured at 450 nm.

rhesus macaque IL-1 beta = biological target: T2, rhesus macaque IL-1 beta (rhesus macaque, UniProt P48090 117-269); test: as above
T2 construct: Bought recombinant protein
T2 sequence (looked up): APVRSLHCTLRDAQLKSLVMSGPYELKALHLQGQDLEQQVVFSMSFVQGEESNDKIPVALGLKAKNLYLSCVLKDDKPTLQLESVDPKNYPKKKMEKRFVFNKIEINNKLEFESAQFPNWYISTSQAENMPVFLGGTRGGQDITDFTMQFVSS
Protocol: as §1

mouse IL-1 beta = biological target: T3, mouse IL-1 beta (mouse, UniProt P10749 118-269); test: as above
T3 construct: Bought recombinant protein
T3 sequence (looked up): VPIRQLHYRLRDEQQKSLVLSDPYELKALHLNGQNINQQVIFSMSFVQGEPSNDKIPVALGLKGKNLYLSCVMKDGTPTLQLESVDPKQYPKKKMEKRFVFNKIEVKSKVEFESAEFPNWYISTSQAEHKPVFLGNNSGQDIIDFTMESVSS
Protocol: as §1

[1] = biological target: T4, recombinant human IL-1 beta (human, UniProt P01584 117-269, biotinylated in the ELISA of Example 2 (R&D systems, cat. no. NFLB0), sites not stated; unlabelled elsewhere); test: cell-based or functional assay
[2] = biological target: T4, recombinant human IL-1 beta; test: ELISA, rhIL-1 beta coated, scFv 10 to 3'000 ng/ml, Protein L-HRP
Protocol: A scFv of irrelevant specificity was used as a control. rhIL-1 beta (Peprotech, cat. no. 200-01B) was coated to NUNC 96-well Maxisorp immunoplates. After blocking scFvs were titrated from 10 to 3′000 ng/ml. Bound scFvs were detected by Protein L-HRP (Sigma-Aldrich, cat. no. P3226), and the ELISA was developed using BM Blue POD substrate (Roche Applied Science, cat. no. 11484281001). For quantification purposes, the absorption was measured at 450 nm using VersaMax microplate reader (Molecular Devices).

Binder | binding result (cynomolgus IL-1 beta) | binding result (rhesus macaque IL-1 beta) | binding result (mouse IL-1 beta) | IC50 of IL-1 beta-induced IL-6 release from human dermal fibroblasts [1] [pM] | binding result [2]
B1 | binds | binds | binds | 2 to 5 | 
B2 |  |  |  | ~8 | 
B3 |  |  |  | ~100 | 
B4 |  |  |  |  | binds
